Test [1] concerns the target RAMP2 expressed on the cell surface of HUVEC (human umbilical vein endothelial cells) (human) (UniProt O60895). In words: cell-based or functional assay.
Test [2] addresses T1, human RAMP2 co-expressed with human CRLR on CHO-K1 cells (hCR2-CHOK1) (human, UniProt O60895 43-175; Q16602 23-461). In words: cell-based or functional assay.
The target in test [3] is T1, human RAMP2 co-expressed with human …. Briefly: Cell ELISA on fixed hCR2-CHOK1 cells, 1/2 serial dilution from 67.5 nM, GraphPad Prism 7.
The target in test [4] is RAMP2 expressed on the cell surface of HUVEC (human umbilical vein endothelial cells) (human, UniProt O60895 43-175). In words: cell-based or functional assay.
For test [5], the target named is T1, human RAMP2 co-expressed with human …. Briefly: Cell ELISA on fixed hCR2-CHOK1 cells, 1/10 serial dilution from 67 nM, anti-human IgG Fc-HRP, GraphPad Prism 7. In general terms: ELISA stands for enzyme-linked immunosorbent assay.

Numbering of substitutions follows the chain as printed.

Chain of RAMP2 expressed on the cell surface of HUVEC (human umbilical vein endothelial cells) (O60895 43-175): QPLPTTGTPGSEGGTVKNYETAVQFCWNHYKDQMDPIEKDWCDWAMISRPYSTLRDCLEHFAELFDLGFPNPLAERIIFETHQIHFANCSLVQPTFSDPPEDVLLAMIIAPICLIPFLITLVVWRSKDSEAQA
Chain of RAMP2 expressed on the cell surface of HUVEC (human umbilical vein endothelial cells) (human) (O60895 43-175): as above
T1 sequence (O60895 43-175, chain 1 of 2): as the sequence (O60895 43-175) above
T1 sequence (Q16602 23-461, chain 2 of 2): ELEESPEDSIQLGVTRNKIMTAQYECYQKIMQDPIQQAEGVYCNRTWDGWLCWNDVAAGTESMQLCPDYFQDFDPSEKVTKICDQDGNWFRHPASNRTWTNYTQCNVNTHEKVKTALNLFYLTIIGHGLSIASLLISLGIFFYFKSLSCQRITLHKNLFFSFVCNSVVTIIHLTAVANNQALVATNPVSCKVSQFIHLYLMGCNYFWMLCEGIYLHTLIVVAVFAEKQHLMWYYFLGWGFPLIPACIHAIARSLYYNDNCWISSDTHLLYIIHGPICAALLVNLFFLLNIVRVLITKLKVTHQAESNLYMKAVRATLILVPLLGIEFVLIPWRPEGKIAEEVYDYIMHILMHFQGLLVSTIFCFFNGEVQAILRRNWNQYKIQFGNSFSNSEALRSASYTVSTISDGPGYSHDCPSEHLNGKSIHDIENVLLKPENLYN

B1: 25H4-4F9 antibody (antibody, V domains shown)
VH: EVQLQQSGPELVKPGASVKISCKASGYSFTGYFMNWVKQSQGKSLESIGRNNPYNGDSIYNQKFKGKATLTVDKSSNTAHMELRSLTSEDSAVYYCARLMIFDAYYAMDYWGQGTSVTVSS
VL: DIQMTQTTSSLSASLGDRVTISCRASQDIRNYLNWYQQKPDGTVKLLIYYTSRLHSGVPSRFSGSGSGTDYSLTISNLEQEDIATYFCQQDSKHPWTFGGGTKLEIK
Broadly, the EC50 is the concentration needed to bring the measured effect to its halfway point. A higher EC50 goes with a less potent agent. In test [1], B1 returned an HUVEC proliferation upon AM addition, 10 nM antibody (OD450, % of no antibody) of 30% and an IC50 values for inhibition of HUVEC proliferation of 1.2 nM. Also, in test [2], the “IC50 values for cAMP inhibition” value was 0.15 nM. Also, in test [3], the EC50 worked out at 0.4 nM.

B2: h25H4-4F9v1 (antibody, V domains shown)
VH: B1 VH with Q5V, L11V, S17T, S40A, S76T, H80Y, R84S, T87R, S91T, S116T
VL: B1 VL with T7S, S22T, D41G, G42K, S72T, N77S, E79Q, G100Q
As for B2, the “HUVEC growth inhibition rate (IC50)” value in test [4] was 16 nM. Besides, the “IC50 values for cAMP inhibition” value in test [2] is 0.17 nM. This molecule gave an EC50 in test [5] of 0.73 nM.

B3: 85H7-2B11 antibody (antibody, V domains shown)
VH: EVQLQQSGPELVKPGASVKMSCKASGYSFSGYFMNWVKQSHGKSLEWIGRINPYNGDTFYNQKFKGKATLTVDKSSSTTHMELRSLTSEDSALYYCARLGIYDVYHYVMENWGQGTSVTVSS
VL: B1 VL with H94N
Consider B3, for which, in test [1], the HUVEC proliferation upon AM addition, 10 nM antibody (OD450, % of no antibody) was determined as 30% and the IC50 values for inhibition of HUVEC proliferation came to 0.8 nM. For the same molecule, the “IC50 values for cAMP inhibition” value in test [2] amounted to 0.03 nM. In test [3], this molecule showed an EC50 of 0.14 nM.

B4: 33H4-1G3 antibody (antibody, V domains shown)
VH: B3 VH with F59L, S77N, T79I, H80Y
VL: B1 VL with H94N
In test [1], B4 yielded an HUVEC proliferation upon AM addition, 10 nM antibody (OD450, % of no antibody) of 30% and an IC50 values for inhibition of HUVEC proliferation of 1.6 nM. In test [2], the “IC50 values for cAMP inhibition” value is 0.045 nM. Also, the 50% effective concentration (EC50) in test [3] was 0.3 nM.

B5: h25H4-4F9v2 (antibody, V domains shown)
VH: EVQLVQSGAEVKKPGATVKISCKASGYSFTGYFMNWVKQAPGKGLESIGRNNPYNGDSIYNQKFKGRATLTVDTSTDTAYMELSSLRSEDTAVYYCARLMIFDAYYAMDYWGQGTTVTVSS
VL: B1 VL with T7S, S22T, D41G, G42K, S72T, N77S, E79Q, G100Q
With B5, in test [4], the “HUVEC growth inhibition rate (IC50)” value is 10.9 nM. In addition, in test [2], the “IC50 values for cAMP inhibition” value was determined as 0.14 nM. Moreover, the EC50 in test [5] stood at 1.05 nM.

B6: h85H7-2B11v2 (antibody, V domains shown)
VH: QVQLVQSGAEVKKPGASVKMSCKASGYSFSGYFMNWVKQAPGQGLEWIGRINPYNGDTFYNQKFKGRATLTVDTSTSTTYMELSSLRSEDTALYYCARLGIYDVYHYVMENWGQGTTVTVSS
VL: B1 VL with T7S, S22T, D41G, G42K, S72T, N77S, E79Q, H94N, G100Q
Take B6: the “HUVEC growth inhibition rate (IC50)” value in test [4] was 9.5 nM. In addition, in test [2], the “IC50 values for cAMP inhibition” value was determined as 0.11 nM. This molecule also showed an EC50 in test [5] of 0.24 nM.

B7: h85H7-2B11v1 (antibody, V domains shown)
VH: B6 VH with Q1E, A9P, K12V, P41H, G44S, R67K, T74K
VL: B1 VL with T7S, S22T, D41G, G42K, S72T, N77S, E79Q, H94N, G100Q
Turning to B7, the “HUVEC growth inhibition rate (IC50)” value in test [4] amounted to 5.1 nM. The “IC50 values for cAMP inhibition” value in test [2] turned out to be 0.07 nM. This molecule returned an EC50 in test [5] of 0.18 nM.

B8: h25H4-4F9v3 (antibody, V domains shown)
VH: B5 VH
VL: DIQMTQSPSSLSASVGDRVTITCRASQDIRNYLNWYQQKPGKAVKLLIYYTSRLHSGVPSRFSGSGSGTDYTLTISSLQPEDIATYFCQQDSKHPWTFGQGTKLEIK
As to B8, the “IC50 values for cAMP inhibition” value in test [2] stood at 0.26 nM. This molecule displayed an EC50 in test [5] of 0.83 nM.

B9: h85H7-2B11v3 (antibody, V domains shown)
VH: B6 VH
VL: B8 VL with H94N
On to B9, for which the “HUVEC growth inhibition rate (IC50)” value in test [4] is 1.5 nM. For the same molecule, the “IC50 values for cAMP inhibition” value in test [2] stood at 0.08 nM. The EC50 in test [5] is 0.23 nM.

B10: h25H4-4F9v5 (antibody, V domains shown)
VH: B5 VH with A24V, K38Q, Q62E, K65Q, A68V, L70I, V72A
VL: B8 VL with R24Q, Y71F, L73F, F87Y
For B10, in test [2], the “IC50 values for cAMP inhibition” value was determined as 0.5 nM. Moreover, the response in test [5] was half-maximal at 2.32 nM (EC50).

B11: h25H4-4F9v8 (antibody, V domains shown)
VH: EVQLVQSGAEVKKPGATVKISCKVSGYTFTGYFMNWVQQAPGKGLEWMGRNNPYNGDSIYAEKFQGRVTITADTSTDTAYMELSSLRSEDTAVYYCARLMIFDAYYAMDYWGQGTTVTVSS
VL: B8 VL with R24Q, V44P, H55E, S56T, Y71F, L73F, F87Y
With B11, in test [2], the “IC50 values for cAMP inhibition” value is 1.07 nM. In test [5], this molecule came in with an EC50 of 3.03 nM.

B12: h25H4-4F9v6 (antibody, V domains shown)
VH: B11 VH with W47S
VL: B8 VL with R24Q, Y71F, L73F, F87Y
For the molecule B12, in test [2], the “IC50 values for cAMP inhibition” value came to 1.35 nM. The EC50 in test [5] came to 3.19 nM.

B13: h25H4-4F9v4 (antibody, V domains shown)
VH: B11 VH with T28S, W47S, M48I, A61N
VL: B8 VL
For B13, in test [2], the “IC50 values for cAMP inhibition” value amounted to 0.17 nM. In addition, the midpoint of the response in test [5], the EC50, lay at 1.83 nM.

The values above are taken from patent WO2019054460A1 (dated 2019).
